We go through one substance from US20030032595A1.

The test deals with Kv1.3 of rat L6 skeletal muscle cells (rat) (UniProt P15384). In words: cell-based or functional assay.
Chain of Kv1.3 of rat L6 skeletal muscle cells (rat) (P15384 whole entry): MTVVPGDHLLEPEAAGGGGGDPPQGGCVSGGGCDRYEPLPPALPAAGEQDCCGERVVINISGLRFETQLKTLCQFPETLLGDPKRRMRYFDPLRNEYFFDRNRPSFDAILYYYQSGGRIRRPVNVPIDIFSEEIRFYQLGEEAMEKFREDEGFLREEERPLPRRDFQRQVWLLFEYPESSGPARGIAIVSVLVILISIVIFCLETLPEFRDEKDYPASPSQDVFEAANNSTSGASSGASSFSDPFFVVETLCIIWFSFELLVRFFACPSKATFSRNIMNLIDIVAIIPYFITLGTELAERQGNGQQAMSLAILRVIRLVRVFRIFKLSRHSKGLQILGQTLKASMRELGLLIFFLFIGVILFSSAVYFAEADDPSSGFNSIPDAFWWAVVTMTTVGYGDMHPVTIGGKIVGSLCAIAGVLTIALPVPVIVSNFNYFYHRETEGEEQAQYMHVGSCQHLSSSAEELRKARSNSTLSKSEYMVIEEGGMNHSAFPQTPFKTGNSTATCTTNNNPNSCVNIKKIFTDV

For “margatoxin (from UniProt P40755 1-39) (peptide)”, the concentration necessary for 1/2 maximal increase in glucose uptake (L6 cells) came to 53 nM.
